Assay results taken from patent US20140243256A1 (ADMINISTRATORS OF THE TULANE EDUCATIONAL FUND, published 2014).

Target: T1, Pichinde virus (PICV) glycoprotein spikes on purified virus (Pichinde virus (CoAn 3739), UniProt P03540 59-273; P03540 2-58)
T1 construct: also called monomeric or oligomeric glycoproteins; GPC
T1 sequence 1: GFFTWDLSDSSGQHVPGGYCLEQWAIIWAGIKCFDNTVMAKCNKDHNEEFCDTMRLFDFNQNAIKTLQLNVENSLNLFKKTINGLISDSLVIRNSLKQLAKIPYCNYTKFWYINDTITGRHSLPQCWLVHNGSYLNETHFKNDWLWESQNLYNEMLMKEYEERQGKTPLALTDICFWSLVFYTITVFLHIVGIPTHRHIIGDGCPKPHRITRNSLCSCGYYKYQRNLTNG
T1 sequence 2: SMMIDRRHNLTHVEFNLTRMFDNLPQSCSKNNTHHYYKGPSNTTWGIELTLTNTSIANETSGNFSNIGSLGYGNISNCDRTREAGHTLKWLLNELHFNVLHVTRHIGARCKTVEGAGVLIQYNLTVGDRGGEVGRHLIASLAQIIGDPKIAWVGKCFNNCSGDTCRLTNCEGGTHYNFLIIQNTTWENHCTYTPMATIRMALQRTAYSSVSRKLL
T1 sequence 3: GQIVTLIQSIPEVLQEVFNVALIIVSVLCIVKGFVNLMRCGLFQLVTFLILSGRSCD
Test: glutaraldehyde crosslinking of PICV with peptide

B1: TAMRA-conjugated Peptide 1 (peptide)
peptide: LNLFKKTINGLISDSLVIR
modifications: TAMRA conjugated (position of the dye not stated)
notes: also called TAMRA-peptide
  binding result: no binding
